Measurements reported in article PMC7323979.

Target: α-synuclein fibrils (preformed seeds) (human) (UniProt P37840)

Sequence of bovine γB-crystallin (P02526 whole entry): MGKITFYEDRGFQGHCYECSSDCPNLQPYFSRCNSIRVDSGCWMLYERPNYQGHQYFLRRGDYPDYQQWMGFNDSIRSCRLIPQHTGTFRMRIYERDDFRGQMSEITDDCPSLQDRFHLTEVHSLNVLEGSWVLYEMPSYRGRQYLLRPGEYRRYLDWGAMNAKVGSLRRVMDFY

- lowest crystallin concentration which efficiently inhibits α-syn fibril formation (ThT, 20 μM α-syn monomer, 1 μM α-syn seeds, pH 5.5, 37°C); the same value is also printed as 4.75 μM monomers: 0.1 mg/ml
Substance: bovine γB-crystallin (from UniProt P02526 1-175) (natural protein)
